We go through 84 variants from the RNAGym collection of RNA variant scans (doi:10.1073/pnas.2313332121).

First the molecules themselves.
B1: TPR 5TU (parent)
chain: GGAUCUUCUCGAUCUAACAAAAAAGACAAAUCUGCCACAAAGCUUGAGAGCAUCUUCGGAUGCAGAGGCGGCAGCCUUCGGUGGCGCGAUAGCGCCAACGUUCUCAACUAUGACACGCAAAACGCGUGCUCCGUUGAAUGGAGUUUAUCAUG

Variants at the floor of the assay were thinned out. Where only a bound is given, the exact number is not on record here.

The variants in this data set derive from B1. Description: polymerase ribozyme fitness, log enrichment relative to wild type (log ratio); higher = more active; in vitro selection for triplet polymerase activity. The gist of the method: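 Fitness measures genotype enrichment against wild-type enrichment on a logarithmic scale, with inverse-variance-weighted averaging of replicates. The logarithm is base 2, and genotypes were kept only with ≥10 input reads and ≥1 read per output in Illumina sequencing. The sequenced libraries came from one triplicate in vitro selection round, including frozen incubation at −7 °C, of PCR-built, transcribed mutant libraries of each subunit of a heterodimeric triplet polymerase ribozyme.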
With A16C C51A C54G C57A C96A G117U U135G, the “polymerase ribozyme fitness (log ratio)” value was not above -4.2.

As to A24G U33G G71A C87G C93G C96A A98G A137G, the “polymerase ribozyme fitness (log ratio)” value is not above -4.2.

Consider A52C A73G, for which the “polymerase ribozyme fitness (log ratio)” value is -1.89.

As to G94U C129G A147U, the “polymerase ribozyme fitness (log ratio)” value was not above -4.2.

Consider A41C G67C G68A G88C G92A A107C, for which the “polymerase ribozyme fitness (log ratio)” value was not above -4.2.

Regarding C93A C132A, the “polymerase ribozyme fitness (log ratio)” value was not above -4.2.

On to A52G A106G, for which the “polymerase ribozyme fitness (log ratio)” value is -0.771.

Turning to A41U G81A G84C C85A C96U G126A, the “polymerase ribozyme fitness (log ratio)” value is not above -4.2.

Turning to A26U U61A G71C C79U A98G U151A, the “polymerase ribozyme fitness (log ratio)” value was not above -4.2.

Consider G58U U82A C116U, for which the “polymerase ribozyme fitness (log ratio)” value came to 0.803.

U55A G92U: the “polymerase ribozyme fitness (log ratio)” value was -1.03.

As for A17G G86U A97U, the “polymerase ribozyme fitness (log ratio)” value is -2.08.

Regarding C87A G141A, the “polymerase ribozyme fitness (log ratio)” value was -3.89.

As to U61A A122G G140C, the “polymerase ribozyme fitness (log ratio)” value is not above -4.2.

In the case of G126U C132U, the “polymerase ribozyme fitness (log ratio)” value was -0.717.

A21G U33G A52C U61G A64G U78G C95A A106G A142G: the “polymerase ribozyme fitness (log ratio)” value is not above -4.2.

Turning to C35A G65U G83C C85A G124A, the “polymerase ribozyme fitness (log ratio)” value was not above -4.2.

As for A16C A21G C54A C95A, the “polymerase ribozyme fitness (log ratio)” value is -3.07.

On to A26U G46U G48U G81U G83C C99G, for which the “polymerase ribozyme fitness (log ratio)” value was not above -4.2.

Turning to C63U G65A A73U A115G U134G, the “polymerase ribozyme fitness (log ratio)” value is not above -4.2.

As to C35G G62A G68A C69G G71C C72A A73G G74C A91C C114U C132U, the “polymerase ribozyme fitness (log ratio)” value was not above -4.2.

Consider A22U C76G C87G U101G G140C, for which the “polymerase ribozyme fitness (log ratio)” value is -4.19.

C63A G80A C85G C96G A110G: the “polymerase ribozyme fitness (log ratio)” value is not above -4.2.

For C76A C105U, the “polymerase ribozyme fitness (log ratio)” value is -2.47.

Take A41G G50C C85U C87A C103U C105G A115U: the “polymerase ribozyme fitness (log ratio)” value is not above -4.2.

Turning to U82G A89U A91U A98U G100C, the “polymerase ribozyme fitness (log ratio)” value is not above -4.2.

Regarding A49C U53A G88C G141C, the “polymerase ribozyme fitness (log ratio)” value was not above -4.2.

Regarding A39C C87U U101G G117U, the “polymerase ribozyme fitness (log ratio)” value was -3.2.

As for U7C U55A C63U G88U A107U U145A, the “polymerase ribozyme fitness (log ratio)” value is not above -4.2.

Consider U7C C8A C32U A91U A121G U134C, for which the “polymerase ribozyme fitness (log ratio)” value is not above -4.2.

Consider A3G C8A U44A A47C U56A G84C C87G, for which the “polymerase ribozyme fitness (log ratio)” value is not above -4.2.

For C38U A52G G92A G124U, the “polymerase ribozyme fitness (log ratio)” value was -3.84.

Regarding A60G C99U A150C, the “polymerase ribozyme fitness (log ratio)” value was -4.02.

For the variant A98U A115U A121G U127G, the “polymerase ribozyme fitness (log ratio)” value is -3.32.

Consider G58U C96A G126C, for which the “polymerase ribozyme fitness (log ratio)” value was determined as 0.641.

With C95U, the “polymerase ribozyme fitness (log ratio)” value was -0.031.

As for U9G G88C C99A A119U, the “polymerase ribozyme fitness (log ratio)” value was not above -4.2.

For A16U G84U G86U C93G U144C, the “polymerase ribozyme fitness (log ratio)” value was -3.51.

For the variant A16G G126A G143A, the “polymerase ribozyme fitness (log ratio)” value is -3.34.

For the variant C5G G84A, the “polymerase ribozyme fitness (log ratio)” value is -0.0388.

Regarding C87U A142G, the “polymerase ribozyme fitness (log ratio)” value is -0.623.

On to C116U U135A, for which the “polymerase ribozyme fitness (log ratio)” value is -0.565.

For the variant C96A A120U G140U, the “polymerase ribozyme fitness (log ratio)” value is -3.09.

With U4C C5A C10U U33A G88C C116U G140A, the “polymerase ribozyme fitness (log ratio)” value was not above -4.2.

As to U82C G84A A98U A115U G141A, the “polymerase ribozyme fitness (log ratio)” value is -2.58.

A16C U44G A47G C51A A60C U77A: the “polymerase ribozyme fitness (log ratio)” value is not above -4.2.

On to A22C A37C, for which the “polymerase ribozyme fitness (log ratio)” value is -0.165.

Turning to A52G G68U C99G, the “polymerase ribozyme fitness (log ratio)” value was not above -4.2.

Turning to A19C A39U U53G A89U U104G C108A G136A A138C U145A, the “polymerase ribozyme fitness (log ratio)” value was not above -4.2.

In the case of A40U C57U C76A, the “polymerase ribozyme fitness (log ratio)” value was -0.244.

Consider A115U U148G, for which the “polymerase ribozyme fitness (log ratio)” value was -4.15.

On to C51A G86C A89U A113U G126A G141U, for which the “polymerase ribozyme fitness (log ratio)” value is not above -4.2.

Consider A106G C118U, for which the “polymerase ribozyme fitness (log ratio)” value came out at 0.261.

Turning to A137C, the “polymerase ribozyme fitness (log ratio)” value is -3.09.

A17U U33A C36A C76A G94A G117U C129U: the “polymerase ribozyme fitness (log ratio)” value was not above -4.2.

Take A21U U61G G80A U101A: the “polymerase ribozyme fitness (log ratio)” value is -2.86.

C27G A29C C51A A73U G83A A97U U151A: the “polymerase ribozyme fitness (log ratio)” value is not above -4.2.

For the variant G70C A142C, the “polymerase ribozyme fitness (log ratio)” value is -3.72.

For the variant G59A C125A, the “polymerase ribozyme fitness (log ratio)” value worked out at 0.12.

C14U C93U U127A C131A: the “polymerase ribozyme fitness (log ratio)” value was not above -4.2.

Turning to G58C U61G U146G, the “polymerase ribozyme fitness (log ratio)” value is -3.76.

Take U7A C85U: the “polymerase ribozyme fitness (log ratio)” value is -2.9.

For U31A U44A G68A G81A U104G C125A, the “polymerase ribozyme fitness (log ratio)” value was not above -4.2.

As to C5A C54U C87U U148C, the “polymerase ribozyme fitness (log ratio)” value was -2.76.

With C38U A60U C87U C95G U135A, the “polymerase ribozyme fitness (log ratio)” value was not above -4.2.

Consider G42A A49G A64G A107U C114U, for which the “polymerase ribozyme fitness (log ratio)” value was not above -4.2.

With G58C C69A, the “polymerase ribozyme fitness (log ratio)” value is -2.62.

Regarding U53G G84A, the “polymerase ribozyme fitness (log ratio)” value was -2.52.

As to C85U U101G, the “polymerase ribozyme fitness (log ratio)” value is -1.15.

For the variant A17G G42C C43A C85A G143U, the “polymerase ribozyme fitness (log ratio)” value was not above -4.2.

U15G A39U U82G G84A G112U: the “polymerase ribozyme fitness (log ratio)” value is not above -4.2.

Consider A41U G80C G88U C103A A107G, for which the “polymerase ribozyme fitness (log ratio)” value was not above -4.2.

Take U13G U56A G71A U135C: the “polymerase ribozyme fitness (log ratio)” value is not above -4.2.

Consider G67C, for which the “polymerase ribozyme fitness (log ratio)” value was -3.97.

For G48A C87U, the “polymerase ribozyme fitness (log ratio)” value was -0.447.

As for A22U C54G C95U, the “polymerase ribozyme fitness (log ratio)” value was -2.06.

For G50C U56A U78A G83A G94U C95A, the “polymerase ribozyme fitness (log ratio)” value was not above -4.2.

As to A20C G59A G81C G86C, the “polymerase ribozyme fitness (log ratio)” value was -3.14.

As to U15C A16G G59U A60G G92A C116U, the “polymerase ribozyme fitness (log ratio)” value is -0.967.

As to A52G A60C, the “polymerase ribozyme fitness (log ratio)” value is -1.96.

Consider G68U C103U G141C, for which the “polymerase ribozyme fitness (log ratio)” value was not above -4.2.

Consider C10A A28U G58A C96U A122G G124C, for which the “polymerase ribozyme fitness (log ratio)” value is not above -4.2.

Consider A12G C14G A97U, for which the “polymerase ribozyme fitness (log ratio)” value is -2.49.

With A20U C38G C57U G86A, the “polymerase ribozyme fitness (log ratio)” value was -3.63.
